Laboratory results from the supplement of paper PMC9732359.
± gives the uncertainty stated by the source.

Experiment: protein stability index of a GFP-peptide fusion (yeast GPS) (PSI 1-4); higher = more stable; sorted into four equal gates, so the index is relative within each strain
How it was run: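 Tiled yeast protein peptides of 17 residues were each joined downstream of GFP, on plasmids that also express Cherry. The pooled library was maintained in yeast, and mid-log cultures in leucine-free medium were sorted into four equal gates on the GFP/Cherry ratio. Plasmids from every gate were amplified by PCR and sequenced on Illumina, with barcodes linking reads to strains. The protein stability index of a peptide is its gate-number-weighted read frequency summed over the gates.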

## AAAAPAPVAAAAPAAAA [FAS2]
pdr5∆
  protein stability index: 1.62 ± 0.27

## AAGALFVSSGFDTSIKL [RPN14]
doa10∆
  protein stability index: 2.41 ± 0.052
pdr5∆
  protein stability index: 2.52 ± 0.045
san1∆
  protein stability index: 2.18 ± 0.064
ubr1∆
  protein stability index: 2.49 ± 0.035

## AAGIWTCSCCKKTVAGG [RPL43A]
doa10∆
  protein stability index: 2.42 ± 0.13
pdr5∆
  protein stability index: 3.17 ± 0.11
san1∆
  protein stability index: 3.02 ± 0.097
ubr1∆
  protein stability index: 2.99 ± 0.074

## AAGSYYVEAQHKLVFVV [RPL7A]
doa10∆
  protein stability index: 2.33 ± 0.072
pdr5∆
  protein stability index: 2.74 ± 0.048
san1∆
  protein stability index: 2.26 ± 0.069
ubr1∆
  protein stability index: 2.4 ± 0.044

## AAKLKQTENDLKDIEAR [RPT1]
doa10∆
  protein stability index: 2.48 ± 0.1
pdr5∆
  protein stability index: 2.53 ± 0.1
san1∆
  protein stability index: 2.46 ± 0.19
ubr1∆
  protein stability index: 3.1 ± 0.087

## AAKTRSYNWGAKAKRRH [RPL37A]
doa10∆
  protein stability index: 3.7 ± 0.15
pdr5∆
  protein stability index: 3.39 ± 0.082
san1∆
  protein stability index: 3 ± 0.099
ubr1∆
  protein stability index: 3.49 ± 0.085

## AALAPKIGPLGLSPKKV [RPL12A]
doa10∆
  protein stability index: 2.66 ± 0.13
pdr5∆
  protein stability index: 3.08 ± 0.097
san1∆
  protein stability index: 3.02 ± 0.097
ubr1∆
  protein stability index: 3.26 ± 0.07

## AAQAQAQAQAQAQAQAQ [GAL11]
doa10∆
  protein stability index: 2.69 ± 0.045
pdr5∆
  protein stability index: 2.9 ± 0.043
san1∆
  protein stability index: 2.65 ± 0.04
ubr1∆
  protein stability index: 2.95 ± 0.068

## AARDNKKTRIIPRHLQL [HTA1]
doa10∆
  protein stability index: 3.04 ± 0.18
pdr5∆
  protein stability index: 3.38 ± 0.11
san1∆
  protein stability index: 3.37 ± 0.13
ubr1∆
  protein stability index: 3.15 ± 0.19

## AAREKKIRELEAELSST [YIL149C/MLP2]
doa10∆
  protein stability index: 2.46 ± 0.29
pdr5∆
  protein stability index: 3.25 ± 0.25
ubr1∆
  protein stability index: 2.89 ± 0.15

## AARVDIGQIIFSVRTKD [RPL10]
doa10∆
  protein stability index: 1.74 ± 0.078
pdr5∆
  protein stability index: 1.67 ± 0.081
san1∆
  protein stability index: 2.78 ± 0.12
ubr1∆
  protein stability index: 2.04 ± 0.057

## AASTPTTTATPHANPIT [PGD1]
doa10∆
  protein stability index: 2.91 ± 0.044
pdr5∆
  protein stability index: 2.85 ± 0.035
san1∆
  protein stability index: 2.92 ± 0.038
ubr1∆
  protein stability index: 2.916 ± 0.026

## ADIENSTSGDPSEFHCL [SSN2]
doa10∆
  protein stability index: 3.15 ± 0.18
pdr5∆
  protein stability index: 3.31 ± 0.26
san1∆
  protein stability index: 3.21 ± 0.12
ubr1∆
  protein stability index: 3.29 ± 0.12

## ADINLEESIRESLQKRE [SIR3]
doa10∆
  protein stability index: 3.4 ± 0.085
pdr5∆
  protein stability index: 3.28 ± 0.088
san1∆
  protein stability index: 3.09 ± 0.12
ubr1∆
  protein stability index: 3.36 ± 0.062

## ADNVDKILEQFEYVLYP [FAS2]
doa10∆
  protein stability index: 2.05 ± 0.067
pdr5∆
  protein stability index: 1.94 ± 0.089
san1∆
  protein stability index: 2.17 ± 0.094
ubr1∆
  protein stability index: 2.57 ± 0.08

## ADRNDDDEGSFAQENSE [SRB6]
doa10∆
  protein stability index: 3.08 ± 0.11
pdr5∆
  protein stability index: 3.22 ± 0.13
san1∆
  protein stability index: 2.6 ± 0.17
ubr1∆
  protein stability index: 3.22 ± 0.12

## ADTLDPALLRPGRLDRK [RPT3]
doa10∆
  protein stability index: 3.57 ± 0.17
pdr5∆
  protein stability index: 3.56 ± 0.16
san1∆
  protein stability index: 3.26 ± 0.23
ubr1∆
  protein stability index: 3.3 ± 0.2

## ADYRLILTGTPLQNNLP [SNF2]
doa10∆
  protein stability index: 2.08 ± 0.047
pdr5∆
  protein stability index: 2.15 ± 0.043
san1∆
  protein stability index: 1.65 ± 0.058
ubr1∆
  protein stability index: 2.03 ± 0.037

## AEDDVIIPQDILDCVVT [YJR042W/NUP85]
doa10∆
  protein stability index: 3.18 ± 0.1
pdr5∆
  protein stability index: 3.04 ± 0.065
san1∆
  protein stability index: 3.36 ± 0.04
ubr1∆
  protein stability index: 2.94 ± 0.07

## AELDLMSGILHCEDKDY [RPN6]
doa10∆
  protein stability index: 2.9 ± 0.052
pdr5∆
  protein stability index: 3.08 ± 0.047
san1∆
  protein stability index: 3 ± 0.046
ubr1∆
  protein stability index: 3.13 ± 0.038

## AELFNNDIKLFVDDTNV [PRP8]
doa10∆
  protein stability index: 2.17 ± 0.065
pdr5∆
  protein stability index: 2.09 ± 0.053
san1∆
  protein stability index: 2.46 ± 0.054
ubr1∆
  protein stability index: 2.13 ± 0.034

## AENSHTQPKATSTGTTI [PUP1]
doa10∆
  protein stability index: 3.17 ± 0.073
pdr5∆
  protein stability index: 3.1 ± 0.071
san1∆
  protein stability index: 3.07 ± 0.06
ubr1∆
  protein stability index: 3.26 ± 0.057

## AETKSYDSRGVGEMKLL [YLR335W/NUP2]
doa10∆
  protein stability index: 1.94 ± 0.064
pdr5∆
  protein stability index: 2.1 ± 0.11
san1∆
  protein stability index: 2.25 ± 0.097
ubr1∆
  protein stability index: 2.44 ± 0.079

## AETLCFTVNVLYPDSSS [RPN3]
doa10∆
  protein stability index: 2.56 ± 0.055
pdr5∆
  protein stability index: 2.69 ± 0.05
san1∆
  protein stability index: 2.97 ± 0.052
ubr1∆
  protein stability index: 2.87 ± 0.041

## AEVQSLFQDGSASLHTR [RRP4]
doa10∆
  protein stability index: 2.57 ± 0.13
pdr5∆
  protein stability index: 2.78 ± 0.16
san1∆
  protein stability index: 2.85 ± 0.1

## AFDKHMNLVLNECIEER [SMB1]
doa10∆
  protein stability index: 2.06 ± 0.14
pdr5∆
  protein stability index: 2.34 ± 0.19
san1∆
  protein stability index: 2.68 ± 0.16
ubr1∆
  protein stability index: 2.56 ± 0.051

## AFFHLFASLRVLPDADV [YJL039C/NUP192]
doa10∆
  protein stability index: 1.17 ± 0.08
pdr5∆
  protein stability index: 1.24 ± 0.078
san1∆
  protein stability index: 1.36 ± 0.14
ubr1∆
  protein stability index: 1.97 ± 0.066
